From WO2021212049A2 come the findings set out here.

This assay has as its target recombinant SARS-CoV-2 S protein ectodomain (residues 14-1211), 2P, furin site mutated, foldon, 8XHis (SARS-CoV-2) (UniProt P0DTC2). Put plainly: ELISA on coated antigen, anti-human IgG-HRP.

As for mAb 2B04 (antibody), the minimum positive concentration is less than 5 µg/mL.
